Columns and labels:
Assay in all cases: SPR, antibody captured, C2 as analyte;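 further: biacore SPR at 37 °C, anti-C2 mAbs captured via goat anti-human IgG on CM5 chips, double-referenced sensorgrams fit to a 1:1 kinetic or steady-state model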
human C2 L271A = molecular target: T1, human C2 L271A (human, UniProt P06681 21-752)
T1 sequence: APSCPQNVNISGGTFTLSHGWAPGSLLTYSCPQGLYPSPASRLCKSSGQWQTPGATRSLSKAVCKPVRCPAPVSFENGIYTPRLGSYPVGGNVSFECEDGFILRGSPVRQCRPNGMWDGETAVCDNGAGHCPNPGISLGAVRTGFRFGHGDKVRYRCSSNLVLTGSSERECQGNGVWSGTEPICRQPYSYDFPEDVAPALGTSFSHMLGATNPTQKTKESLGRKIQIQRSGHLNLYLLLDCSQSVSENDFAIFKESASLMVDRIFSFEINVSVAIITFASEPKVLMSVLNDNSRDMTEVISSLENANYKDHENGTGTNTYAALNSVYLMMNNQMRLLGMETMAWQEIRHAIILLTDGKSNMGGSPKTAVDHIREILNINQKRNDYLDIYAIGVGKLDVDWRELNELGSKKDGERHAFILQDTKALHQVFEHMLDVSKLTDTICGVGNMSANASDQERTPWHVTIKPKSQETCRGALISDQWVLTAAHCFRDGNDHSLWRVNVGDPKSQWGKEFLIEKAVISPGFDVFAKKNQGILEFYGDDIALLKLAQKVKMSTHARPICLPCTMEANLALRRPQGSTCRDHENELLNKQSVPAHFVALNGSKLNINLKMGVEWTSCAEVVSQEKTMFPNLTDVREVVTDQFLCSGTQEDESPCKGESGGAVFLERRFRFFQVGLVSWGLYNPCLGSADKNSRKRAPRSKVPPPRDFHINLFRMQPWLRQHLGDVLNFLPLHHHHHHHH

human C2 E556A = molecular target: T2, human C2 E556A (human, UniProt P06681 21-752)
T2 sequence: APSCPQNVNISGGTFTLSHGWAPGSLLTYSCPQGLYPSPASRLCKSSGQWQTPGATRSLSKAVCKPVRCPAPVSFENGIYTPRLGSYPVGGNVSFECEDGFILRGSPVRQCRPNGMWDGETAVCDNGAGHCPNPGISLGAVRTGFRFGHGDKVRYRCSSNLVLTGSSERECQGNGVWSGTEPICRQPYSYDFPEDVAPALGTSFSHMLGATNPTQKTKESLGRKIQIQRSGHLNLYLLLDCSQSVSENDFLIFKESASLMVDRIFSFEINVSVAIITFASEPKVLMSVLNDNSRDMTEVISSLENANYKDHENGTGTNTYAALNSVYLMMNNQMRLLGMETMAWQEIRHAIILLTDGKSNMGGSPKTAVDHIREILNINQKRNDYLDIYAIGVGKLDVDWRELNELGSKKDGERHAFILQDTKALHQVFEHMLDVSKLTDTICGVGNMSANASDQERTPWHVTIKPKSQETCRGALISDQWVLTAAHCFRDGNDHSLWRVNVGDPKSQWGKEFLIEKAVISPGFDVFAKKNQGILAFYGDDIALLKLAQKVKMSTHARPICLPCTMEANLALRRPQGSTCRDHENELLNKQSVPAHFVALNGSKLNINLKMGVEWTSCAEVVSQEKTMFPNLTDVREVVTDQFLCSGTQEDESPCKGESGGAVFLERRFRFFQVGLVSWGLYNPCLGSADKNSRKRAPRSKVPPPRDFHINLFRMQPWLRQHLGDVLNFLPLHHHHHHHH

human C2 L279A = molecular target: T3, human C2 L279A (human, UniProt P06681 21-752)
T3 sequence: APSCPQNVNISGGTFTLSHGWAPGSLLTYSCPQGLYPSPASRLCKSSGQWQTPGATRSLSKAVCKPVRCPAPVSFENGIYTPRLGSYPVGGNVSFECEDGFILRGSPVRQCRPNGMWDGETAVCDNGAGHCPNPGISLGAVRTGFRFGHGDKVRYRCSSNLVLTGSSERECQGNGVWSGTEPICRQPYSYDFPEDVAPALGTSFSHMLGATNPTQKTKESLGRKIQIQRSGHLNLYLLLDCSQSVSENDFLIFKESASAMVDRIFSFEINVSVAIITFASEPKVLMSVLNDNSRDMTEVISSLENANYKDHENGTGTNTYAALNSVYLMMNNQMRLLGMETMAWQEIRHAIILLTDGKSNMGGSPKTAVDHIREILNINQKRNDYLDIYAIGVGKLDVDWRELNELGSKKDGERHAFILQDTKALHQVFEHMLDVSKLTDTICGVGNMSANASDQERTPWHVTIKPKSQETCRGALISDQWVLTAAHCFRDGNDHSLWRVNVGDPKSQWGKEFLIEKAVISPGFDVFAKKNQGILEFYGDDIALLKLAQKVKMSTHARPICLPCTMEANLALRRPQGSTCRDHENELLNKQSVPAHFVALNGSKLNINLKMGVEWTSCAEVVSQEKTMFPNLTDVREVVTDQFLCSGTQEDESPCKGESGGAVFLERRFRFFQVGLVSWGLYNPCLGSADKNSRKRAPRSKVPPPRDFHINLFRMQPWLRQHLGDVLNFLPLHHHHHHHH

human C2 D511A = molecular target: T4, human C2 D511A (human, UniProt P06681 21-752)
T4 sequence: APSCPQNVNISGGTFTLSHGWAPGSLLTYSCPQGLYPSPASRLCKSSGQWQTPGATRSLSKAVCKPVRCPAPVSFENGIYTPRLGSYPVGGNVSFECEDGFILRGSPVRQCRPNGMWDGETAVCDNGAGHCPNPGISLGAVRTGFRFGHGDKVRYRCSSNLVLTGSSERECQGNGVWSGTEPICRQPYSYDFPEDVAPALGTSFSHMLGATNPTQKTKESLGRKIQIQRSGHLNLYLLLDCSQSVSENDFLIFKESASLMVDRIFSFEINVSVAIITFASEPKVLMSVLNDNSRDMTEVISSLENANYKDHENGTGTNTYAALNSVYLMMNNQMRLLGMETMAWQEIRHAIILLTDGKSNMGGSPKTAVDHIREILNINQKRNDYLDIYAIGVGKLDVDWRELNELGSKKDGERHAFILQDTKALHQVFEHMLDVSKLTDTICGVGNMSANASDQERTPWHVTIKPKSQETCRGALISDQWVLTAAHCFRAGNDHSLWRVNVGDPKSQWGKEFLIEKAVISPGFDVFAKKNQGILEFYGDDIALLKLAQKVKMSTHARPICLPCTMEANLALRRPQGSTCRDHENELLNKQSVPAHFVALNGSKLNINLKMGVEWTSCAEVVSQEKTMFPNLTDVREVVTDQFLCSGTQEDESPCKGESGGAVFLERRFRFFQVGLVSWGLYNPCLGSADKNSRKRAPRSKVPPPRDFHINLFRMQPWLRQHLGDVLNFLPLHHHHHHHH

B1: RF16-226 (antibody, human IgG4 S228P, lambda)
heavy: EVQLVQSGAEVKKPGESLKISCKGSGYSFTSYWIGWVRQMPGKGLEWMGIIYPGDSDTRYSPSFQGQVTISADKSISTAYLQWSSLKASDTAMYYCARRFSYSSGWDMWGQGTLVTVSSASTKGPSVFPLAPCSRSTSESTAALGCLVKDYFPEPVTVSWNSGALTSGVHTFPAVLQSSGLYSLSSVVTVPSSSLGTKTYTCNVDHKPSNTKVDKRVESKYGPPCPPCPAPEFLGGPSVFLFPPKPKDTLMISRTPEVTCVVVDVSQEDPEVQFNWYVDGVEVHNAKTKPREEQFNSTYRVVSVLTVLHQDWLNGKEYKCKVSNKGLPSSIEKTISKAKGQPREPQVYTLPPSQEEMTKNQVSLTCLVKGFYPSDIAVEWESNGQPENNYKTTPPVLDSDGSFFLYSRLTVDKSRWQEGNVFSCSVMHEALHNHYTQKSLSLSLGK
light: SYELTQPPSVSVSPGQTARITCSGDALTSKYVAWYQQKSGLAPLLVIYEDTRRPSGIPAKFSGSSSGSVATLTISGAHGDDEADYYCYSTDASGHQRVFGGGTKLTVLSQPKAAPSVTLFPPSSEELQANKATLVCLISDFYPGAVTVAWKADGSPVKAGVETTKPSKQSNNKYAASSYLSLTPEQWKSHRSYSCQVTHEGSTVEKTVAPTECS
notes: pH-dependent anti-C2 antibody from a phage display library; also called WT
For B1, the Kd (human C2 L271A) was 10.8 nM, the Kd (human C2 E556A) was 5.9 nM and the Kd (human C2 L279A) was 54.4 nM. For the same binder, the Kd (human C2 D511A) was 31.2 nM.

Source: patent publication US20220332804A1 (CSL INNOVATION, published 2022)
